From the supplement of paper PMC9112550, “Optimization of the antimicrobial peptide Bac7 by deep mutational scanning” (BMC Biology, 2022)

The sequences below were run on Escherichia coli TOP10 (assay: shrunken log2 fold change of peptide-encoding DNA abundance (4.5 h post-induction vs induction); higher = less antimicrobial activity (less host growth inhibition)). Conditions: time post-induction: 4.5 h; library: site-saturation at positions 5, 18, 19, 20.
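Also: peptides expressed intracellularly from a pBAD plasmid library in pooled LB shake-flask culture, induced with 0.3% L-arabinose, DNA abundance read by NGS, three biological replicates, DESeq2 with apeglm shrinkage.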

Row | Sequence | shrunken log2 fold change
1 | RRIRYRPPRLPRPRPRPTVKPRP | -0.428
2 | RRIRDRPPRLPRPRPRPPNCPRP | -0.0514
3 | RRIRIRPPRLPRPRPRPPFRPRP | -0.0473
4 | RRIRDRPPRLPRPRPRPPHWPRP | 0.322
5 | RRIRPRPPRLPRPRPRPFLDPRP | -0.413
6 | RRIRVRPPRLPRPRPRPKTVPRP | -0.012
7 | RRIRHRPPRLPRPRPRPSSFPRP | 0.0395
8 | RRIRYRPPRLPRPRPRPIFQPRP | -0.568
9 | RRIRWRPPRLPRPRPRPYKYPRP | -0.977
10 | RRIRHRPPRLPRPRPRPDRPPRP | -0.184
11 | RRIRMRPPRLPRPRPRPHWFPRP | 0.0685
12 | RRIRARPPRLPRPRPRPTIGPRP | 0.176
13 | RRIRVRPPRLPRPRPRPTEYPRP | 0.0465
14 | RRIRFRPPRLPRPRPRPVHEPRP | -0.0618
15 | RRIRKRPPRLPRPRPRPEWDPRP | 0.12
16 | RRIRPRPPRLPRPRPRPHYPPRP | -0.0221
17 | RRIRFRPPRLPRPRPRPAAAPRP | 0.551
18 | RRIRARPPRLPRPRPRPMKYPRP | -0.157
19 | RRIRNRPPRLPRPRPRPSHRPRP | 0.0906
20 | RRIRPRPPRLPRPRPRPLKEPRP | -0.228
21 | RRIRCRPPRLPRPRPRPFYQPRP | -0.163
22 | RRIRCRPPRLPRPRPRPIMFPRP | -0.388
23 | RRIRQRPPRLPRPRPRPKVNPRP | -0.0444
24 | RRIRIRPPRLPRPRPRPCDPPRP | 0.00225
25 | RRIRSRPPRLPRPRPRPCPAPRP | -0.271

Row | Sequence | shrunken log2 fold change
26 | RRIRGRPPRLPRPRPRPHGTPRP | 0.331
27 | RRIRMRPPRLPRPRPRPVYRPRP | -0.174
28 | RRIRERPPRLPRPRPRPKMCPRP | -0.149
29 | RRIRARPPRLPRPRPRPAEHPRP | 0.193
30 | RRIRTRPPRLPRPRPRPADQPRP | -0.0202
31 | RRIRCRPPRLPRPRPRPQRLPRP | 0.44
32 | RRIRPRPPRLPRPRPRPTGQPRP | 0.152
33 | RRIRKRPPRLPRPRPRPHFWPRP | 0.188
34 | RRIRHRPPRLPRPRPRPLSSPRP | 0.0305
35 | RRIRDRPPRLPRPRPRPRRAPRP | 0.691
36 | RRIRKRPPRLPRPRPRPQIRPRP | -0.0406
37 | RRIRLRPPRLPRPRPRPSKWPRP | -0.348
38 | RRIRYRPPRLPRPRPRPQHAPRP | -0.313
39 | RRIRDRPPRLPRPRPRPMDAPRP | 0.251
40 | RRIRMRPPRLPRPRPRPNSYPRP | -0.0962
41 | RRIRSRPPRLPRPRPRPFTKPRP | -0.202
42 | RRIRFRPPRLPRPRPRPTLAPRP | 0.361
43 | RRIRERPPRLPRPRPRPTAQPRP | 0.416
44 | RRIRDRPPRLPRPRPRPSIPPRP | -0.43
45 | RRIRHRPPRLPRPRPRPIFWPRP | -0.0136
46 | RRIRWRPPRLPRPRPRPHAPPRP | 0.517
47 | RRIRTRPPRLPRPRPRPVLKPRP | 0.209
48 | RRIRIRPPRLPRPRPRPTQSPRP | 0.575
49 | RRIRDRPPRLPRPRPRPFRPPRP | 0.0778
50 | RRIRWRPPRLPRPRPRPENGPRP | -0.109

Row | Sequence | shrunken log2 fold change
51 | RRIRDRPPRLPRPRPRPCWFPRP | -0.0292
52 | RRIRMRPPRLPRPRPRPQFSPRP | 0.0281
53 | RRIRERPPRLPRPRPRPILQPRP | -0.518
54 | RRIRMRPPRLPRPRPRPQLCPRP | 0.237
55 | RRIRFRPPRLPRPRPRPVWGPRP | 0.311
56 | RRIRDRPPRLPRPRPRPAMVPRP | 0.282
57 | RRIRMRPPRLPRPRPRPVPFPRP | 0.179
58 | RRIRHRPPRLPRPRPRPVAWPRP | 0.252
59 | RRIRVRPPRLPRPRPRPIMLPRP | -0.122
60 | RRIRVRPPRLPRPRPRPTPWPRP | 0.294
61 | RRIRYRPPRLPRPRPRPSGTPRP | -0.175
62 | RRIRIRPPRLPRPRPRPYQVPRP | -0.14
63 | RRIRFRPPRLPRPRPRPCPQPRP | -0.697
64 | RRIRRRPPRLPRPRPRPCIMPRP | -0.191
65 | RRIRKRPPRLPRPRPRPLDMPRP | 0.0395
66 | RRIRPRPPRLPRPRPRPWIDPRP | -0.35
67 | RRIRNRPPRLPRPRPRPIYRPRP | -0.356
68 | RRIRFRPPRLPRPRPRPLNAPRP | -0.166
69 | RRIRLRPPRLPRPRPRPTEYPRP | -0.0401
70 | RRIRARPPRLPRPRPRPPAVPRP | 0.927
71 | RRIRIRPPRLPRPRPRPRVDPRP | 0.061
72 | RRIRHRPPRLPRPRPRPGFVPRP | 0.607
73 | RRIRDRPPRLPRPRPRPEANPRP | 1.28
74 | RRIRCRPPRLPRPRPRPKPKPRP | 0.407
75 | RRIRSRPPRLPRPRPRPQSYPRP | 0.107

Row | Sequence | shrunken log2 fold change
76 | RRIRIRPPRLPRPRPRPETKPRP | 0.0233
77 | RRIRYRPPRLPRPRPRPARIPRP | 0.0141
78 | RRIRMRPPRLPRPRPRPWAKPRP | 0.0317
79 | RRIRDRPPRLPRPRPRPFMYPRP | -0.212
80 | RRIRQRPPRLPRPRPRPGVCPRP | -0.126
81 | RRIRNRPPRLPRPRPRPLEFPRP | -0.109
82 | RRIRARPPRLPRPRPRPSHHPRP | -0.309
83 | RRIRKRPPRLPRPRPRPSMTPRP | -0.0765
84 | RRIRPRPPRLPRPRPRPVMSPRP | 0.0198
85 | RRIRARPPRLPRPRPRPHQVPRP | -0.17
86 | RRIRGRPPRLPRPRPRPDNIPRP | 0.119
87 | RRIRWRPPRLPRPRPRPYAQPRP | -0.189
88 | RRIRVRPPRLPRPRPRPGVYPRP | -0.0713
89 | RRIRIRPPRLPRPRPRPSVDPRP | -0.326
90 | RRIRGRPPRLPRPRPRPCEVPRP | 0.0371
91 | RRIRWRPPRLPRPRPRPVRFPRP | 0.0694
92 | RRIRHRPPRLPRPRPRPDAPPRP | 2.03
93 | RRIRERPPRLPRPRPRPFKMPRP | -0.559
94 | RRIRGRPPRLPRPRPRPMWLPRP | 0.25
95 | RRIRLRPPRLPRPRPRPCNTPRP | -0.186
96 | RRIRPRPPRLPRPRPRPYEKPRP | -0.0835
97 | RRIRFRPPRLPRPRPRPEVQPRP | 0.00737
98 | RRIRFRPPRLPRPRPRPWMAPRP | -0.254
99 | RRIRGRPPRLPRPRPRPTTLPRP | 0.507
100 | RRIRERPPRLPRPRPRPRALPRP | 0.0317

Row | Sequence | shrunken log2 fold change
101 | RRIRDRPPRLPRPRPRPHVHPRP | -0.134
102 | RRIRPRPPRLPRPRPRPAMQPRP | 0.11
103 | RRIRARPPRLPRPRPRPEHRPRP | 0.0198
104 | RRIRVRPPRLPRPRPRPVRCPRP | 0.145
105 | RRIRARPPRLPRPRPRPEVEPRP | 1.3
106 | RRIRTRPPRLPRPRPRPRIDPRP | -0.0699
107 | RRIRARPPRLPRPRPRPYYQPRP | -0.374
108 | RRIRLRPPRLPRPRPRPQLWPRP | -0.195
109 | RRIRLRPPRLPRPRPRPGWMPRP | 0.0923
110 | RRIRARPPRLPRPRPRPNHPPRP | -0.0147
111 | RRIRNRPPRLPRPRPRPAEMPRP | -0.00992
112 | RRIRYRPPRLPRPRPRPAEYPRP | -0.58
113 | RRIRARPPRLPRPRPRPITSPRP | 0.157
114 | RRIRSRPPRLPRPRPRPWHLPRP | -0.273
115 | RRIRCRPPRLPRPRPRPSKQPRP | -0.209
116 | RRIRERPPRLPRPRPRPHPMPRP | -0.334
117 | RRIRCRPPRLPRPRPRPPCMPRP | -0.159
118 | RRIRERPPRLPRPRPRPPFMPRP | -0.185
119 | RRIRARPPRLPRPRPRPGWTPRP | 0.525
120 | RRIRWRPPRLPRPRPRPFMDPRP | -0.41
121 | RRIRYRPPRLPRPRPRPYLIPRP | -0.554
122 | RRIRQRPPRLPRPRPRPDPIPRP | -0.0263
123 | RRIRARPPRLPRPRPRPGQFPRP | 0.109
124 | RRIRYRPPRLPRPRPRPGHEPRP | -0.18
125 | RRIRKRPPRLPRPRPRPAWYPRP | 0.205

Row | Sequence | shrunken log2 fold change
126 | RRIRRRPPRLPRPRPRPYPFPRP | -0.238
127 | RRIRKRPPRLPRPRPRPAMWPRP | 0.241
128 | RRIRRRPPRLPRPRPRPHPIPRP | 0.35
129 | RRIRNRPPRLPRPRPRPDDCPRP | -0.108
130 | RRIRMRPPRLPRPRPRPFMRPRP | 0.345
131 | RRIRERPPRLPRPRPRPLRTPRP | 0.00359
132 | RRIRRRPPRLPRPRPRPRHWPRP | 0.551
133 | RRIRYRPPRLPRPRPRPCMDPRP | -0.214
134 | RRIRFRPPRLPRPRPRPRMVPRP | -0.157
135 | RRIRDRPPRLPRPRPRPPMTPRP | 0.425
136 | RRIRRRPPRLPRPRPRPTKPPRP | 0.541
137 | RRIRYRPPRLPRPRPRPVKDPRP | -0.0122
138 | RRIRRRPPRLPRPRPRPFYIPRP | -0.039
139 | RRIRIRPPRLPRPRPRPTRWPRP | 0.242
140 | RRIRARPPRLPRPRPRPYAFPRP | -0.125
141 | RRIRFRPPRLPRPRPRPMCVPRP | -0.405
142 | RRIRQRPPRLPRPRPRPAVFPRP | -0.0406
143 | RRIRYRPPRLPRPRPRPIIHPRP | -1.21
144 | RRIRARPPRLPRPRPRPCVMPRP | -0.0813
145 | RRIRMRPPRLPRPRPRPNITPRP | 0.314
146 | RRIRSRPPRLPRPRPRPADPPRP | 0.0724
147 | RRIRQRPPRLPRPRPRPDEIPRP | -0.00251
148 | RRIRLRPPRLPRPRPRPVPNPRP | 0.0119
149 | RRIRNRPPRLPRPRPRPDWIPRP | 0.0186
150 | RRIRLRPPRLPRPRPRPFQLPRP | -0.402
